Data: the supplement of paper PMC10567573

B1: USP39 (parent)
chain: FVEKNPTIVNFPITNVDLREYLSE

Variants of: B1
Test: protein stability index of a GFP-peptide fusion (GPS, HEK-293T) (PSI 1-6); higher = more stable
Details: c terminus: a fixed tail appended
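Also: lentivirally expressed fusions sorted by FACS into six bins by GFP to DsRed ratio, PSI derived from sequencing read proportions per bin multiplied by bin number.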

Protein stability index, by site and new letter:
L18: Q 2.64; C 2.64; M 1.64; A 1.69; E 2.05; Y 1.92; I 2.53; T 1.54; H 1.42; W 2.33; P 1.24; G 2.1; S 1.43; R 1.71; N 1.78; D 2.21; F 2.06; V 2.65; K 1.3
L22: Y 1.9; F 2.1; I 1.93; E 1.75; V 1.83; A 2.47; W 1.74; D 1.64; R 1.66; H 1.5; K 2.09; C 1.12; Q 2.44; N 1.47; T 2.03; M 2.07; S 2.49; P 1.84; G 2.12
T14: C 1.72; N 2.67; L 1.86; R 2.78; P 1.54; A 1.74; I 3.46; M 1.57; W 3.7; H 2.09; F 1.98; E 1.43; G 1.82; S 2.08; V 2.08; Q 1.81; K 1.73; D 2.65; Y 1.97
I13: R 1.98; T 1.36; Q 2.22; K 2.25; V 2.03; P 1.91; N 2.42; A 2.23; C 1.77; E 2.4; H 1.81; Y 1.73; L 1.67; G 1.71; F 2.08; D 2.17; M 2.6; S 2.59
V16: N 1.49; I 1.6; T 2.94; F 1.8; E 2.04; R 2.78; L 2.05; G 1.89; A 2.02; P 2.29; D 1.89; H 1.49; Q 1.99; K 1.74; C 1.41; M 2.37; W 1.52; S 1.82; Y 1.62
T7: N 2.39; K 1.74; Y 3.42; P 1.55; H 1.69; A 1.8; S 1.5; Q 1.81; D 2.15; E 2; R 1.98; F 1.8; L 2.02
P6: N 2.1; I 2.61; S 3; T 2.21; Q 1.98; Y 2.82; V 2.38; H 1.92; L 1.19; G 1.95; K 2.76; M 2.47; R 2.13
E20: C 1.68; A 1.46; Y 2.88; F 1.71; G 1.13; W 1.77; L 1.39; D 1.81; S 2.5; I 2.01; N 1.55; Q 2.08; K 2.56; T 1.46; P 2.02; M 2.41; V 2.28; H 2.01; R 1.41
N15: D 1.56; P 1.45; S 1.18; Q 2.13; H 1.44; T 1.43; R 2.21; C 1.77; I 2.26; L 2.05; V 2.27; G 1.37; Y 2.3; A 1.52; K 2.13; M 2.12
F11: C 2.01; I 2.42; T 2.02; W 1.23; E 3.01; K 2.05; L 1.88; S 1.77; D 2.82; N 2.22; A 1.85; R 2.02; P 2; H 2; Q 2.09; Y 3.36; G 2.13; M 1.78; V 1.82
D17: Q 1.92; G 2.02; H 2.25; P 1.34; C 2.08; S 2.28; N 1.55; W 1.4; M 1.62; V 2.64; T 1.35; R 2.25; L 1.28; K 1.11; A 2.46; I 3.11; F 2.63; E 1.95; Y 1.84
N10: D 2.14; R 1.8; A 2.02; L 3.29; V 2.29; K 2.48; Q 2.3; H 1.75; P 2.42; E 1.99; W 2.08; T 1.77; G 2.93; S 1.76; F 1.57; I 3.79
I8: Q 2.54; W 2.96; N 2.1; M 1.25; A 1.82; G 1.91; P 2.76; D 2.77; V 1.89; Y 1.55; R 2.56; F 2.25; K 2.04; T 3.34; C 2.02; E 2.67; S 2.89; H 2.12; L 2.81
V9: P 1.89; K 2.38; Y 3.09; G 2.03; C 1.5; Q 2.03; H 1.8; D 2.27; R 2.16; L 1.63; S 1.8; E 2.91; T 2.36; N 1.98; F 1.73; I 2.23; M 1.63; A 2.66
R19: I 2.49; H 1.25; L 2.06; N 1.99; S 1.31; A 2.92; Q 2.35; K 1.78; V 1.83; W 2.13; F 2.81; P 2.08; C 2.05; T 1.63; G 1.64; E 2.09; Y 2.1; M 1.65; D 1.44
S23: A 1.57; Q 1.78; F 2.12; L 1.11; E 1.83; I 3.78; N 1.65; K 2.59; H 2.76; C 2.41; T 1.06; V 1.77; P 2.13; D 1.84; M 2; R 2.02; G 1.34; Y 4.51
Y21: L 2.27; S 2.27; D 1.71; G 2.44; K 1.21; W 1.47; Q 1.87; I 2.04; P 1.62; E 2.21; R 1.57; M 1.49; F 2.04; T 1.86; V 1.52; H 2.84; N 1.9; C 1.6; A 2.35
P12: G 2.21; V 2.28; C 1.48; T 2.28; A 2.06; E 1.66; F 3.66; N 2.3; W 2.96; M 3.23; I 2.38; R 2.74; S 1.34; K 1.56; H 1.47; Q 1.74
E24: S 1.88; H 2.5; I 1.64; L 2.27; Q 2.04; C 2.11; T 1.78; D 1.37; R 1.53; K 1.84; A 2.19; P 2.1; N 2.24; G 2.14; F 2.02; M 1.59
